One block for each binder: values may come before it. No end group written: not given here.
Assays:
[1] = molecular target: T1, Soluble IGF-1R (R&D Systems, Cat. # 391-GR/CF); recombinant human IGF-1R (human), P08069; assay: phage ELISA, vs IR
[2] = molecular target: T2, Insulin receptor prepared according to Bass et al., 1996: soluble human insulin receptor-immunoglobulin heavy chain chimera (human), P06213; assay: phage ELISA vs milk
[3] = molecular target: T1, Soluble IGF-1R (R&D Systems, Cat. # …); assay: phage ELISA vs milk
[4] = molecular target: T2, Insulin receptor prepared according to …; assay: phage ELISA, vs IGF-1R
[5] = molecular target: Insulin receptor prepared according to Bass et al., 1996: soluble human insulin receptor-immunoglobulin heavy chain chimera (human) (UniProt P06213); assay: phage ELISA vs milk
[6] = molecular target: Insulin receptor prepared according to Bass et al., 1996: soluble human insulin receptor-immunoglobulin heavy chain chimera (human) (UniProt P06213); assay: phage ELISA, vs IGF-1R
[7] = molecular target: soluble human insulin mini-receptor (mIR) (human) (UniProt P06213); assay: FP competition vs FITC-RP9, mIR
[8] = molecular target: soluble human insulin receptor-immunoglobulin heavy chain chimera (sIR-Fc) (human), P06213; assay: fluorescence polarization competition with FITC-RP9 for sIR-Fc; details: remark: other sources report otherwise
Soluble IGF-1R [9] = molecular target: Soluble IGF-1R (UniProt P08069); assay: phage ELISA; ratio over background for IGF-1R divided by that for IR
Soluble IGF-1R [10] = molecular target: Soluble IGF-1R (UniProt P08069)

IGF-1R/IR Comparison [1]: 9.4
Ratio over Background [2]: 1.1 fold
Ratio over Background [3]: 10.6 fold
IR/IGF-1R Comparison [4]: 0.1
B1: 20E2B-2-B11-IGFR (peptide)
peptide: VVTPVNFYRALEALVRGXRLG
modifications: not fully specified; printed as VVTPVNFYRALEALVRG.RLG; X: residue not identified in the source

IC50 [7]: 770 nM
Binder: FHENFYDWFVQRVSKK [H2C]

Ratio over Background [5]: 2 fold
IR/IGF-1R Comparison [6]: 0.1
Binder: YRGMLVLGRISGGAGKAASERPARIGQKVSAVNFYDWFV [A6L-0-H3-IR]

The next lines start with the binder.

Binder: RGAVAGFHDQFYDWFDRQVSRVHKFG [H2CA-4-E9-IGFR]
Ratio over Background [5]: 1.9 fold
IR/IGF-1R Comparison [6]: 0.3

Binder: CWARPCGDAANFYDWFVQQAS [C1]
IC50 [8]: 52 nM

B2: 26L-3-G5-IR (peptide)
peptide: AETSAQVGWQRLWSVWPGDHWSTLDPFYHKLSELLRESGA
modifications: not fully specified (residue 27, N-terminus, C-terminus); printed as AETSAQVGWQRLWSVWPGDHWSTLDP9YHKLSELLRESGA
IGF-1R/IR ratio comparison (Soluble IGF-1R [9]): 1.4
ratio over background, IGF-1R (ratio over background) (Soluble IGF-1R [10]): 2

Binder: CCTTEMVVMDARDDPFYHKLSELVTGG [B6Hα-1-B5-IR]
Ratio over Background [5]: 1 fold
IR/IGF-1R Comparison [6]: 0

From patent US20030236190A1
